The substances below were run against T1, human gastric inhibitory peptide receptor (hGIPR) (Homo sapiens, UniProt P48546) (assay: cAMP pharmacological functional assay in presence of 0.1% casein, hGIPR). Conditions: ratio of hGIPR to hGLP1R cAMP EC50 ratios.
T1 construct: expressed in transfected cells; host or cells: HEK293
T1 sequence (P48546 22-466): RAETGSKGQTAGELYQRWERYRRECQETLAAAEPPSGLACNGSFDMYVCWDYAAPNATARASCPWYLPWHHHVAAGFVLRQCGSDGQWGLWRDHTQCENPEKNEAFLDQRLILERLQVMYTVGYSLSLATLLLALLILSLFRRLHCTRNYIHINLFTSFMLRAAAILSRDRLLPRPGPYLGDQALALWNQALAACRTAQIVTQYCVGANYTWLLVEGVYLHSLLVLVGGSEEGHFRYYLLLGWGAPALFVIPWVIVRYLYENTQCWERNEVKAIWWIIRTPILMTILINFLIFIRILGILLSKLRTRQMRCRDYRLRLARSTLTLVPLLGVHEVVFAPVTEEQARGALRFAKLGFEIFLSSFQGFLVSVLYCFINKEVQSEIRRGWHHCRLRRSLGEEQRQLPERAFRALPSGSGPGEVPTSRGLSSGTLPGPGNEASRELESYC
Assay type: cell-based
Experimental: Each receptor over-expressing cell line (20 μl) is treated with the test peptide in DMEM (Gibco Cat #31053) supplemented with 0.1% Casein (Sigma Cat #C4765), 250 μM IBMX, 1× GlutaMAX™ (Gibco Cat #35050), and 20 mM HEPES (HyClone Cat #SH30237.01) in a 20 μl assay volume. […] EC50 is the concentration of compound causing half-maximal simulation in a dose response curve. A relative EC50 value is derived by non-linear regression analysis using the percent maximal response vs. the concentration of peptide added, fitted to a four-parameter logistic equation.
Intracellular cAMP levels are determined by extrapolation using a standard curve. Dose response curves of compounds are plotted as the percentage of stimulation normalized to minimum (buffer only) and maximum (maximum concentration of each control ligand) values and analyzed using a four parameter non-linear regression fit with a variable slope (Genedata Screener 13). EC50 is the concentration of compound causing half-maximal simulation in a dose response curve.
EC50 is the concentration of compound causing half-maximal simulation in a dose response curve.

Substance	[hGIPR/hGLP1R] EC50 Ratio
Y-Aib-EGT-αMeF(2F)-TSD-4Pal-SI-αMeL-LDEK((2-[2-(2-Amino-ethoxy)-ethoxy]-acetyl)2-(γGlu)-CO—(CH2)16—CO2H)AQ-Aib-EFI-(D-Glu)-YLIEGGPSSGAPPPS-NH2 (YXEGTXTSDXSIXLDEKAQXEFIXYLIEGGPSSGAPPPS; Aib, αMeF(2F), 4Pal, αMeL, D-Glu; lipidated K; amide; (2)..(2) Xaa at position 2 is Aib; (6)..(6) Xaa at position 6 is alpha-methyl-Phe(2F); (10)..(10) Xaa at position 10 is 4Pal; (13)..(13) Xaa at position 13 is alpha-methyl-Leu; MOD_RES (17)..(17) Lys at position 17 is chemically modified by conjugation of the epsilon-amino group of the Lys side chain with (2-[2-(2-amino-ethoxy)-ethoxy]-acetyl)2-(gamma-Glu)-CO-(CH2)16- CO2H; (20)..(20) Xaa at posit) [Peptide 204]	6.65
Y-Aib-EGT-αMeF(2F)-TSD-4Pal-SI-αMeL-LDEK((2-[2-(2-Amino-ethoxy)-ethoxy]-acetyl)2-(γGlu)-CO—(CH2)18—CO2H)AQ-Aib-EFI-(D-Glu)-YLIEGGPSSGAPPPS-NH2 (YXEGTXTSDXSIXLDEKAQXEFIXYLIEGGPSSGAPPPS; Aib, αMeF(2F), 4Pal, αMeL, D-Glu; lipidated K; amide; (2)..(2) Xaa at position 2 is Aib; (6)..(6) Xaa at position 6 is alpha-methyl-Phe(2F); (10)..(10) Xaa at position 10 is 4Pal; (13)..(13) Xaa at position 13 is alpha-methyl-Leu; MOD_RES (17)..(17) Lys at position 17 is chemically modified by conjugation of the epsilon-amino group of the Lys side chain with (2-[2-(2-amino-ethoxy)-ethoxy]-acetyl)2-(gamma-Glu)-CO-(CH2)18- CO2H; (20)..(20) Xaa at posit) [Peptide 182]	5.01
Y-Aib-EGT-αMeF(2F)-TSD-4Pal-SI-αMeL-LDEK((2-[2-(2-Amino-ethoxy)-ethoxy]-acetyl)2-(γGlu)-CO—(CH2)18—CO2H)AQ-Aib-EFI-Aib-YLIEGGPSSGAPPPS-NH2 (YXEGTXTSDXSIXLDEKAQXEFIXYLIEGGPSSGAPPPS; Aib, αMeF(2F), 4Pal, αMeL; lipidated K; amide; (2)..(2) Xaa at position 2 is Aib; (6)..(6) Xaa at position 6 is alpha-methyl-Phe(2F); (10)..(10) Xaa at position 10 is 4Pal; (13)..(13) Xaa at position 13 is alpha-methyl-Leu; MOD_RES (17)..(17) Lys at position 17 is chemically modified by conjugation of the epsilon-amino group of the Lys side chain with (2-[2-(2-amino-ethoxy)-ethoxy]-acetyl)2-(gamma-Glu)-CO-(CH2)18- CO2H; (20)..(20) Xaa at posit) [Peptide 189]	3.61
Y-Aib-EGT-αMeF(2F)-TSD-4Pal-SI-αMeL-LDEK((2-[2-(2-Amino-ethoxy)-ethoxy]-acetyl)2-(εK)-CO—(CH2)18—CO2H)AQ-Aib-EFI-(D-Glu)-YLIEGGPSSGAPPPS-NH2 (YXEGTXTSDXSIXLDEKAQXEFIXYLIEGGPSSGAPPPS; Aib, αMeF(2F), 4Pal, αMeL, D-Glu; εK-lipidated K; amide; (2)..(2) Xaa at position 2 is Aib; (6)..(6) Xaa at position 6 is alpha-methyl-Phe(2F); (10)..(10) Xaa at position 10 is 4Pal; (13)..(13) Xaa at position 13 is alpha-methyl-Leu; MOD_RES (17)..(17) Lys at position 17 is chemically modified by conjugation of the epsilon-amino group of the Lys side chain with (2-[2-(2-Amino-ethoxy)-ethoxy]-acetyl)2-(epsilon-Lys)-CO-(CH2)18- CO2H; (20)..(20) Xaa at pos) [Peptide 207]	3.87
Y-Aib-EGT-αMeF(2F)-TSD-4Pal-SI-αMeL-LDEK((2-[2-(2-Amino-ethoxy)-ethoxy]-acetyl)2-CO—(CH2)16—CO2H)AQ-Aib-EFI-(D-Glu)-YLIEGGPSSGAPPPS-NH2 (YXEGTXTSDXSIXLDEKAQXEFIXYLIEGGPSSGAPPPS; Aib, αMeF(2F), 4Pal, αMeL, D-Glu; lipidated K; amide; (2)..(2) Xaa at position 2 is Aib; (6)..(6) Xaa at position 6 is alpha-methyl-Phe(2F); (10)..(10) Xaa at position 10 is 4Pal; (13)..(13) Xaa at position 13 is alpha-methyl-Leu; MOD_RES (17)..(17) Lys at position 17 is chemically modified by conjugation of the epsilon-amino group of the Lys side chain with (2-[2-(2-amino-ethoxy)-ethoxy]-acetyl)2-CO-(CH2)16-CO2H; (20)..(20) Xaa at position 20 is Aib) [Peptide 205]	3.91
Y-Aib-EGT-αMeF(2F)-TSD-4Pal-SI-αMeL-LDEK((2-[2-(2-Amino-ethoxy)-ethoxy]-acetyl)2CO—(CH2)18—CO2H)AQ-Aib-EFI-(D-Glu)-YLIEGGPSSGAPPPS-NH2 (YXEGTXTSDXSIXLDEKAQXEFIXYLIEGGPSSGAPPPS; Aib, αMeF(2F), 4Pal, αMeL, D-Glu; lipidated K; amide; (2)..(2) Xaa at position 2 is Aib; (6)..(6) Xaa at position 6 is alpha-methyl-Phe(2F); (10)..(10) Xaa at position 10 is 4Pal; (13)..(13) Xaa at position 13 is alpha-methyl-Leu; MOD_RES (17)..(17) Lys at position 17 is chemically modified by conjugation of the epsilon-amino group of the Lys side chain with (2-[2-(2-amino-ethoxy)-ethoxy]-acetyl)2-CO-(CH2)18-CO2H; (20)..(20) Xaa at position 20 is Aib) [Peptide 206]	3.35
Y-Aib-EGT-αMeF(2F)-TSD-4Pal-SI-αMeL-LDKK((2-[2-(2-Amino-ethoxy)-ethoxy]-acetyl)2-(γGlu)-CO—(CH2)18—CO2H)AQ-Aib-EFI-(D-Glu)-YLIEGGPSSGAPPPS-NH2 (YXEGTXTSDXSIXLDKKAQXEFIXYLIEGGPSSGAPPPS; Aib, αMeF(2F), 4Pal, αMeL, D-Glu; lipidated K; amide; (2)..(2) Xaa at position 2 is Aib; (6)..(6) Xaa at position 6 is alpha-methyl-Phe(2F); (10)..(10) Xaa at position 10 is 4Pal; (13)..(13) Xaa at position 13 is alpha-methyl-Leu; MOD_RES (17)..(17) Lys at position 17 is chemically modified by conjugation of the epsilon-amino group of the Lys side chain with (2-[2-(2-amino-ethoxy)-ethoxy]-acetyl)2-(gamma-Glu)-CO-(CH2)18- CO2H; (20)..(20) Xaa at posit) [Peptide 203]	7.38

Source: patent US12295987B2, “Method of using a GIP/GLP1 co-agonist for diabetes” (Eli Lilly and Company, priority 2018, dated 2025)
